This note sets out measurements from patent US20240343811A1 (SHANDONG SIMCERE BIOPHARMACUTICAL, published 2024).

Where “and” joins values, the source holds several entries; their conditions need not be identical. Equal values may be shown once. Read-outs that look alike come from different tables or passages of the source.

For experiment [1], the target named is T1, human CD16a (158F), full length, on FlpinCHO cells (human, UniProt P08637 17-254). The experiment is described as follows: FACS on FlpinCHO cells.
Experiment [2] deals with T2, human CD16a (158V), full length, on cells (human, UniProt P08637 17-254).
T2 construct: also used as target for the bought Jurkat-NFAT reporter line stably expressing human CD16a (158V); also called FlpinCHO-human CD16a (158V); FlpinCHO-CD16a (158V)
The experiment is described as follows: FACS on FlpinCHO cells.

Experiment [3] deals with T3, human CD16b (NA1), full length, on FlpinCHO cells (human, UniProt O75015 17-200).
T3 construct: also called FlpinCHO-human CD16b (NA1)
T3 chain: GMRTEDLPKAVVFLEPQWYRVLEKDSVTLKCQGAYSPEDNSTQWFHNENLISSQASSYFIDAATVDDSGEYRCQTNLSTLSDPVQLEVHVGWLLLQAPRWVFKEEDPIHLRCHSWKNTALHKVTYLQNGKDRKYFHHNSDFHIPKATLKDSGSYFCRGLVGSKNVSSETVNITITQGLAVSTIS
Kind of experiment: FACS on FlpinCHO cells.

Experiment [4] deals with T4, human CD16b (NA2), full length, on FlpinCHO cells (human, UniProt O75015 17-200).
T4 construct: also called FlpinCHO-human CD16b (NA2)
T4 chain: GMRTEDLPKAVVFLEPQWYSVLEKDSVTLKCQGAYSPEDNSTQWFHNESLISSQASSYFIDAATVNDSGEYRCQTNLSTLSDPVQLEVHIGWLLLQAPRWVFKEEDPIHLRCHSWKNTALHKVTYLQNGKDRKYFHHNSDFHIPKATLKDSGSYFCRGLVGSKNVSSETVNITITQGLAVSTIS
The experiment is described as follows: FACS on FlpinCHO cells.

The target of experiment [5] is T5, cynomolgus monkey CD16, full length, on FlpinCHO cells (cynomolgus monkey, UniProt Q8SPW2 17-254).
T5 construct: also called FlpinCHO-cyno CD16; Flipin CHO-cyno CD16
Kind of experiment: FACS on FlpinCHO cells.

In experiment [6] the target is T1, human CD16a (158F), full length, on …. Kind of experiment: FACS on FlpinCHO cells. In outline: (§1)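 Trypsinised cells in PBS + 2% BSA were incubated on ice for 1 hour with antibody at a range of concentrations. After washes, mean fluorescence intensity was read by flow cytometry. EC50 values were derived by curve fitting of MFI.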
This is another data set of the same source.

Experiment [7] deals with T2, human CD16a (158V), full length, on …. The experiment is described as follows: FACS on FlpinCHO cells. In outline: as §1
The source holds these as a separate data set.

Experiment [8] deals with T3, human CD16b (NA1), full length, on …. Kind of experiment: FACS on FlpinCHO cells. In outline:
(§2)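 Trypsin-detached FlpinCHO cells expressing full-length CD16b were blocked in PBS+2% BSA and incubated on ice for 1 hour with antibody at varying concentrations. Binding read by flow cytometry as MFI; EC50 from curve fitting.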

Experiment [9] addresses T4, human CD16b (NA2), full length, on …. The experiment is described as follows: FACS on FlpinCHO cells. In outline:
as §2

The target in experiment [10] is T6, CD16 on primary human NK cells (human, UniProt P08637 17-254).
T6 construct: whole, on cells; also called resting NK cells
The experiment is described as follows: FACS on human NK cells. In outline:
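Freshly prepared human NK cells were resuspended at 2×10⁶ cells/ml in PBS+2% (w/w) BSA and incubated 1 h on ice with antibody at varying concentrations. After five PBS washes, flow cytometry gave mean fluorescence intensity, and EC50 was fitted from the MFI curve.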

For experiment [11], the target named is T5, cynomolgus monkey CD16, full length, on …. The experiment is described as follows: FACS on FlpinCHO cells. Here is the method:
The required cells were scale-up cultured in a T-75 cell culture flask to the logarithmic growth phase. The medium was aspirated, and the cells were washed twice with a PBS buffer and then digested with trypsin. After the digestion was terminated, the cells were washed twice with the PBS buffer. The cells were counted, and then the cell pellet was resuspended with a [PBS+2% (w/w) BSA] blocking solution to 2×10⁶ cells/ml, and added to a 96-well FACS reaction plate at 50 μl/well. […] 50 μl/well of the antibody to be detected was added at different concentrations, and incubated on ice for 1 hour. […] The mixture was centrifuged and washed 5 times with PBS, and FACS (FACS Canto II, purchased from BD Company) was used for detection and result analysis. Data analysis was performed by software (CellQuest) to obtain the mean fluorescence intensity (MFI) of the cells. Then, software (GraphPad Prism8) was used for analysis, data fitting and EC50 value calculation.
Flipin CHO-cyno CD16 cells were subjected to FACS detection and data analysis according to the method of Example 3.1.
The source holds these as a separate data set.

Experiment [12] concerns the target T2, human CD16a (158V), full length, on …. Kind of experiment: cell-based or functional assay.
Experiment [13] has as its target T1, human CD16a (158F), full length, on …. The experiment is described as follows: FACS on FlpinCHO cells. The source holds these as a separate data set.
Experiment [14] addresses T2, human CD16a (158V), full length, on …. The experiment is described as follows: FACS on FlpinCHO cells. The source holds these as a separate data set.
For experiment [15], the target named is T3, human CD16b (NA1), full length, on …. The experiment is described as follows: FACS on FlpinCHO cells. The method in brief:
as §2

The target in experiment [16] is T4, human CD16b (NA2), full length, on …. Kind of experiment: FACS on FlpinCHO cells. In outline: as §2
Experiment [17] concerns the target T5, cynomolgus monkey CD16, full length, on …. Kind of experiment: FACS on FlpinCHO cells. The method in brief: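 FlpinCHO cells expressing full-length cynomolgus CD16, blocked in PBS/2% BSA at 2×10⁶ cells/ml, incubated with antibody at various concentrations 1 h on ice. Flow cytometry MFI fitted to give EC50.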
The source holds these as a separate data set.

For experiment [18], the target named is T2, human CD16a (158V), full length, on …. Kind of experiment: cell-based or functional assay. This is another data set of the same source.
Experiment [19] has as its target T1, human CD16a (158F), full length, on …. Kind of experiment: FACS, biotinylated antibody.
The target of experiment [20] is T2, human CD16a (158V), full length, on …. Kind of experiment: FACS, biotinylated antibody.
In experiment [21] the target is T6, CD16 on primary human NK cells. Kind of experiment: FACS on human NK cells, biotinylated antibody.
The target is the same in experiment [22]. The experiment is described as follows: FACS on human NK cells, biotinylated antibody. This is another data set of the same source.
Experiment [23] has as its target T1, human CD16a (158F), full length, on …. The experiment is described as follows: FACS, biotinylated antibody, +10 mg/mL human immunoglobulin. For orientation: In flow cytometry, cells or beads pass a laser one at a time.
Experiment [24] has as its target T2, human CD16a (158V), full length, on …. The description is as above.
Experiment [25] concerns the target T6, CD16 on primary human NK cells. The experiment is described as follows: FACS on human NK cells, biotinylated antibody, +10 mg/mL human immunoglobulin.
The target is the same in experiment [26]. Described as above. The source holds these as a separate data set.

T5 sequence (Q8SPW2 other isoform, or with tags, fused parts or gaps limits assumed): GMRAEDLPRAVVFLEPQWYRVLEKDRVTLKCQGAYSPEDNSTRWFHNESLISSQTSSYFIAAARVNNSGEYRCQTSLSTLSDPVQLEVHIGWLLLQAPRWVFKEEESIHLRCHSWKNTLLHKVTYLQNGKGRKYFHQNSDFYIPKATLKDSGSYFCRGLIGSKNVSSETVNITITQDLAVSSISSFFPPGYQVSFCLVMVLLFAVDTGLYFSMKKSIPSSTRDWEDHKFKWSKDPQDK

B1: 3G8 antibody as used to check the stably transfected cell lines (Example 1.3) (antibody, V domains shown)
VH: QVTLKESGPGILQPSQTLSLTCSFSGFSLRTSGMGVGWIRQPSGKGLEWLAHIWWDDDKRYNPALKSRLTISKDTSSNQVFLKIASVDTADTATYYCAQINPAWFAYWGQGTLVTVSA
VL: DTVLTQSPASLAVSLGQRATISCKASQSVDFDGDSFMNWYQQKPGQPPKLLIYTTSNLESGIPARFSASGSGTDFTLNIHPVEEEDTATYYCQQSNEDPYTFGGGTKLEIK
notes: also called CD16 antibody
Regarding B1, the Mean fluorescence intensity in [1] worked out at 3080; in [2], 5870; in experiment [3], 28100; in [4], 24800; in [5] it was 5500.

B2: P2C47 scFv-hFc (Fc fusion)
chain: SYVLTQPSSVSVAPGQTATISCGGHNIGSKNVHWYQQRPGQSPVLVIYQDNKRPSGIPERFSGSNSGNTATLTISGTQAMDEADYYCQVWDNYSVLFGGGTKLTVLGGGGSGGGGSGGGGSQVQLVQSGAEVKKPGESLKVSCKASGYTFTSYYMHWVRQAPGQGLEWMGAIEPMYGSTSYAQKFQGRVTMTRDTSTSTVYMELSSLRSEDTAVYYCARGSAYYYDFADYWGQGTLVTVSSEPKSSDKTHTCPPCPAPEEFGGPSVFLFPPKPKDTLMISRTPEVTCVVVAVSHEDPEVKFNWYVDGVEVHNAKTKPREEQYNSTYRVVSVLTVLHQDWLNGKEYKCKVSNKALPAPIEKTISKAKGQPREPQVYTLPPSREEMTKNQVSLTCLVKGFYPSDIAVEWESNGQPENNYKTTPPVLDSDGSFFLYSKLTVDKSRWQQGNVFSCSVMHEALHNHYTQKSLSLSPGK
notes: also called control antibody P2C47
Broadly, the EC50 is the concentration needed to bring the measured effect to its halfway point. As for B2, the EC50 was 0.62 nM and 0.98 nM in experiment [6]; 0.85 nM and 1.03 nM in experiment [7]; 3.18 nM and 5.5 nM in [8]; 14.2 nM and 5.12 nM in experiment [9]; 0.84 nM in experiment [10]; 0.58 nM in [11]. The EC50 in [13] was 0.56 nM; in experiment [14], 0.54 nM; in experiment [15] it was 3.36 nM; in experiment [17], 0.62 nM; in [19] it was 0.41 nM and 0.39 nM; in experiment [20] it was 0.58 nM and 0.77 nM. Besides, the EC50 in experiment [21] was 1.33 nM; in experiment [22], 0.99 nM; in experiment [23], 2.97 nM and 2.63 nM; in experiment [24] it was 3.32 nM and 2.87 nM; in experiment [25], 5.4 nM; in experiment [26], 4.3 nM. Also, the “Maximum mean fluorescence intensity” value in experiment [10] was 2540; in [11] it was 29200; in experiment [13], 9400; in experiment [14], 8800; in experiment [15], 43600; in experiment [16] it was 63400. For the same molecule, the “Maximum mean fluorescence intensity” value in experiment [17] was determined as 20100; in experiment [21], 33000; in experiment [22], 30100; in experiment [25], 30900; in experiment [26], 28000. Besides, the “EC50, activation activity for Jurkat cell” value in experiment [12] was found to be 0.04 nM; in experiment [18], 0.06 nM. Also, the Maximum fluorescence value came to 158000 in experiment [12] and 149000 in experiment [18].
